Assay results taken from the supplement of paper PMC10065799, “High-throughput profiling of sequence recognition by tyrosine kinases and SH2 domains using bacterial peptide display” (eLife, 2023).

Experiments:
[1] = target: FGFR1 (UniProt P11362); assay: phosphorylation enrichment, bacterial display (enrichment ratio); higher = better substrate or ligand; peptides without Tyr show the background
[2] = target: Fes (UniProt P07332); assay: as above
[3] = target: EPHB2 (UniProt P29323); assay: as above
[4] = target: Fyn (UniProt P06241); assay: as above
Chain of Fyn (P06241 whole entry, looked up): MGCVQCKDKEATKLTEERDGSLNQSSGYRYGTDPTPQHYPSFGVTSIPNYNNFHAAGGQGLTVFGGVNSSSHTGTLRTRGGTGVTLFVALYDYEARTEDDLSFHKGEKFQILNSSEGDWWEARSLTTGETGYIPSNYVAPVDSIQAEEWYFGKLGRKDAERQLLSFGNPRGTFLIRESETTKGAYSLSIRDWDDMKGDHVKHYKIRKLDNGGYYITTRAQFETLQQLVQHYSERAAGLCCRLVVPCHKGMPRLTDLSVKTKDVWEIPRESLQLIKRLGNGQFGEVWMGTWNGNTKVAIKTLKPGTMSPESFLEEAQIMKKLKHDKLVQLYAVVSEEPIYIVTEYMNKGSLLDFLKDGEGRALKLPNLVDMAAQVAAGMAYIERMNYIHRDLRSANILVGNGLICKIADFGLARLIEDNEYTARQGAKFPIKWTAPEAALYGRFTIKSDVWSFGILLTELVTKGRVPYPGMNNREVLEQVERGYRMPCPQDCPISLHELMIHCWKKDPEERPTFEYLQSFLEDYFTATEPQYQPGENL

[5] = target: Hck (UniProt P08631); assay: as above
Chain of Hck (P08631 whole entry, looked up): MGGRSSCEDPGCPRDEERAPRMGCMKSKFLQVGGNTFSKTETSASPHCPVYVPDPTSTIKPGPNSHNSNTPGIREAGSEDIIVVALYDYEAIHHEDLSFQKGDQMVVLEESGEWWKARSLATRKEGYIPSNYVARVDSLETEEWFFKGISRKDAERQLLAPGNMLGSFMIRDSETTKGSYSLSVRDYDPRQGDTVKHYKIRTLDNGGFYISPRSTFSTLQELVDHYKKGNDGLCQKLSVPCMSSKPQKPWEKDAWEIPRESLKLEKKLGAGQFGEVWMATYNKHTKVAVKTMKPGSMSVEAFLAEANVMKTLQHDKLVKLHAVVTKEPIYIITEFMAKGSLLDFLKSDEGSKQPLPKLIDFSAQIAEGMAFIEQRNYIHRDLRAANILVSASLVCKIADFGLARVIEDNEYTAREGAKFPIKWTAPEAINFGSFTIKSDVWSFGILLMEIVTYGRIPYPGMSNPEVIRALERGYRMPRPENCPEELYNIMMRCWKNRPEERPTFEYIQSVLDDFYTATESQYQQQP

[6] = tested on: c-Abl (mouse); assay: as above
[7] = tested on: AncSZ; assay: as above
[8] = tested on: c-Src; assay: as above
[9] = tested on: Fer (mouse); assay: as above
[10] = target: EPHB1 (UniProt P54762); assay: as above
Chain of EPHB1 (P54762 whole entry, looked up): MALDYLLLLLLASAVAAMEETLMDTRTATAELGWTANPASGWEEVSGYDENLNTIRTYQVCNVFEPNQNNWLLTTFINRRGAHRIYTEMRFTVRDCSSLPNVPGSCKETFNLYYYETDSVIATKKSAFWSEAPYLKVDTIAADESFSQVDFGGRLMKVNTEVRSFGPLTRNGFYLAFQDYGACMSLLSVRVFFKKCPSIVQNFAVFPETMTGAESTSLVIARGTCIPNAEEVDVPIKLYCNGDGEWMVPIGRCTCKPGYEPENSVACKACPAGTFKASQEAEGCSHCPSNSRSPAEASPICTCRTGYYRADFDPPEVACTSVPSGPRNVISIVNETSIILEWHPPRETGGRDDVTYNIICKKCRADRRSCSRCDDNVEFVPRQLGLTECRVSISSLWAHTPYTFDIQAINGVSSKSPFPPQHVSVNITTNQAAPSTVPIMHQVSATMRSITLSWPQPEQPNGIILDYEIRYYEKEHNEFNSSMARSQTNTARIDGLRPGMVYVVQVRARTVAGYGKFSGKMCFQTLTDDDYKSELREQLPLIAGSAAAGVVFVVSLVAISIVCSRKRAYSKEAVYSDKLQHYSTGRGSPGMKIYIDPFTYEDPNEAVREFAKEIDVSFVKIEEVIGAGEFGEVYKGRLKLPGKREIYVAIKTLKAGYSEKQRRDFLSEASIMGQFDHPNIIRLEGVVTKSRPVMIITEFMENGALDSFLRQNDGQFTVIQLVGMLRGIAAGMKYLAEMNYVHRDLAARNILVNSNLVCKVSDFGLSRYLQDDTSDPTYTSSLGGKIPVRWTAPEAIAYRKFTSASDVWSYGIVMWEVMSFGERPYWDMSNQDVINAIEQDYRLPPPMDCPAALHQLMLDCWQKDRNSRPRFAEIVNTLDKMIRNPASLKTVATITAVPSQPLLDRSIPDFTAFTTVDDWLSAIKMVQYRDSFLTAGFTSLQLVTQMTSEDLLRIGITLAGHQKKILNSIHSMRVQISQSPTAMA

[11] = target: FGFR3 (UniProt P22607); assay: as above
[12] = target: MERTK (UniProt Q12866); assay: as above
Chain of MERTK (Q12866 whole entry, looked up): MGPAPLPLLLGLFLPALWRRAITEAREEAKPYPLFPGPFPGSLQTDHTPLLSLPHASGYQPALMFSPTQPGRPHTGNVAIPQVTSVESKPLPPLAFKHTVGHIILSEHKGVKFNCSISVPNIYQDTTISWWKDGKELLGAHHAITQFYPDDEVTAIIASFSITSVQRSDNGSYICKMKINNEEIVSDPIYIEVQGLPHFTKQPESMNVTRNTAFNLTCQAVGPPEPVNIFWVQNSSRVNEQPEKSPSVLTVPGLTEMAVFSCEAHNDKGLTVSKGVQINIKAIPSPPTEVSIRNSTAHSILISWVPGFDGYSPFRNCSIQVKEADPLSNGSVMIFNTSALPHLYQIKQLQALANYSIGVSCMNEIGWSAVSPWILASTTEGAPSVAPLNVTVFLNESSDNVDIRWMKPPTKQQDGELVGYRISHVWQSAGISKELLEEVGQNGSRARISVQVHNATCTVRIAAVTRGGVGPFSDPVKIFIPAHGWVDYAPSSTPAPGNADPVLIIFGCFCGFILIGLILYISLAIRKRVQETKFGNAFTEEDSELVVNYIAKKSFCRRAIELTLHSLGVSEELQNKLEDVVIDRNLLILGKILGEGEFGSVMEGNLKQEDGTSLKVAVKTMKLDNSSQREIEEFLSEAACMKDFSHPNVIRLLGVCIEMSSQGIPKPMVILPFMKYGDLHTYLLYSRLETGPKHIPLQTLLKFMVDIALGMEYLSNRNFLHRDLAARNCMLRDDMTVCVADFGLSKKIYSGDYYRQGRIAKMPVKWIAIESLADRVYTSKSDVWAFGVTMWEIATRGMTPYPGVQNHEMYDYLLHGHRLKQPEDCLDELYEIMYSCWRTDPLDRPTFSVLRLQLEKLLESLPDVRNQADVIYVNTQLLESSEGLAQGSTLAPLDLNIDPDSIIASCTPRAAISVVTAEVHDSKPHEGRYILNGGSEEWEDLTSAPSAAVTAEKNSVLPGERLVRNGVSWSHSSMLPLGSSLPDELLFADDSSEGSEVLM

[13] = target: Jak2 (UniProt O60674); assay: as above
[14] = target: SHP2-C SH2; assay: SH2 binding enrichment of the phosphorylated peptide, bacterial display (enrichment ratio); higher = better substrate or ligand; peptides without Tyr show the background
[15] = target: c-Src SH2; assay: as above
[16] = target: Grb2 SH2 (UniProt P62993); assay: as above
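Throughout, for SH2 binding enrichment of the phosphorylated peptide, bacterial display: peptide library displayed on the E. coli surface as eCPX fusions, selected cells deep-sequenced, score is each peptide's frequency after selection divided by its frequency in the input.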
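Throughout, for phosphorylation enrichment, bacterial display: 11-residue human phosphosite peptides and single-mutation variants displayed on the E. coli surface, counted by deep sequencing, each peptide's frequency after selection divided by its frequency in the unselected input library; frequency after pTyr selection over input frequency; kinase dosed for 20-30% of maximal phosphorylation in three min.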

Chain of FGFR1 (P11362 whole entry, looked up): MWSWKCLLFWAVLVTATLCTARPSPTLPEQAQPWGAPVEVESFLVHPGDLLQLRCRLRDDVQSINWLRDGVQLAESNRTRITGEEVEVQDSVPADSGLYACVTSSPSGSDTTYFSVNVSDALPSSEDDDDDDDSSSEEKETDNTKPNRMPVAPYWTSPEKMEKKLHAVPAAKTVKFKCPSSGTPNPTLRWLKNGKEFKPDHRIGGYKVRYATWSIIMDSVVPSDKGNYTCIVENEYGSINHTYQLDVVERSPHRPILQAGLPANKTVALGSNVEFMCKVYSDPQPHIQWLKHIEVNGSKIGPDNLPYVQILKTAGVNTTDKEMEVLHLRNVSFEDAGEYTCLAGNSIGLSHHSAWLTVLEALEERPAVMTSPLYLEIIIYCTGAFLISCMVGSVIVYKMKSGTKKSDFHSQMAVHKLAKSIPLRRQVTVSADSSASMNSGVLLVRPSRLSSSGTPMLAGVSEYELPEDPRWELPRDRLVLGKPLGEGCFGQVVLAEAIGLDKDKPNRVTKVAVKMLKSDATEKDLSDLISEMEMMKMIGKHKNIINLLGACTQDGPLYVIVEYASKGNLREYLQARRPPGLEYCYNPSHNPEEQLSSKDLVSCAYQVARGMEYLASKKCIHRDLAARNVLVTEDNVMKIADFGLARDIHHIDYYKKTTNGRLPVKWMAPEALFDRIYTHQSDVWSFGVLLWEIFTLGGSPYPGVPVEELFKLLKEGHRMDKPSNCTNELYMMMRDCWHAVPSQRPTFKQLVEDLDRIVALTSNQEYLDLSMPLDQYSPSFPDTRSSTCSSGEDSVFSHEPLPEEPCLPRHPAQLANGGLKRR
Chain of Fes (P07332 whole entry, looked up): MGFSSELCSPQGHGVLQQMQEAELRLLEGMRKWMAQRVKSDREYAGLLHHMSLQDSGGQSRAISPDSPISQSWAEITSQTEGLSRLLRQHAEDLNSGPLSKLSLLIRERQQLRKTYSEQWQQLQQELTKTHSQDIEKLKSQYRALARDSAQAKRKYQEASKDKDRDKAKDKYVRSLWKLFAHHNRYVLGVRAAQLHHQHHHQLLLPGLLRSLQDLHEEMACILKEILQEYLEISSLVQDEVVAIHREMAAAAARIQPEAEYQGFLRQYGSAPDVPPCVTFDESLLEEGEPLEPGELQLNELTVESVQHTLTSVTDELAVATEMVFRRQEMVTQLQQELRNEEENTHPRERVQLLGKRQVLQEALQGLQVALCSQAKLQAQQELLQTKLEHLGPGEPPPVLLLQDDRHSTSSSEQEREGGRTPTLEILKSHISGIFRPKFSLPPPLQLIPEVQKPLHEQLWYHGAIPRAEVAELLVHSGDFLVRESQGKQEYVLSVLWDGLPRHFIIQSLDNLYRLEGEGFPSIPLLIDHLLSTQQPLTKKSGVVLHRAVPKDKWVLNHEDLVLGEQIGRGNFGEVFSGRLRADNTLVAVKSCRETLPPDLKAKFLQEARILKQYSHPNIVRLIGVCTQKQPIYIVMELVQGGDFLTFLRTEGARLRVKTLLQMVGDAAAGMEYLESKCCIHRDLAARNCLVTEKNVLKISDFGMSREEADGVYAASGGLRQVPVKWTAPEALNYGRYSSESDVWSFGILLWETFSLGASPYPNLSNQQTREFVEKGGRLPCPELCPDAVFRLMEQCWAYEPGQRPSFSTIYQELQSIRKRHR

| SH2 binding enrichment [14] | SH2 binding enrichment [15] | SH2 binding enrichment [16] | Sequence | phosphorylation enrichment [1] | phosphorylation enrichment [2] | phosphorylation enrichment [3] | phosphorylation enrichment [4] | phosphorylation enrichment [5] | phosphorylation enrichment [6] | phosphorylation enrichment [7] | phosphorylation enrichment [8] | phosphorylation enrichment [9] | phosphorylation enrichment [10] | phosphorylation enrichment [11] | phosphorylation enrichment [12] | phosphorylation enrichment [13] |
| --- | --- | --- | --- | --- | --- | --- | --- | --- | --- | --- | --- | --- | --- | --- | --- | --- |
| 0.6 | 0.486 | 0.88 | AHAGEYGAVAL [HBA1_Y25_E28V] | 0.421 | 0.594 | 0.582 | 5.54 | 3.27 | 0.517 | 0.598 | 2.95 | 0.672 | 0.346 | 0.509 | 0.389 | 0.511 |
| 0.411 | 0.341 | 0.607 | ALAPKYHGGGG [HBB_Y146_H144P] | 0.327 | 0.506 | 0.356 | 0.31 | 0.348 | 0.423 | 0.314 | 0.389 | 0.332 | 0.315 | 0.248 | 0.386 | 0.423 |
| 0.643 | 0.509 | 0.697 | ALPGEYIPTVF [RAC1_Y32_F28L] | 0.573 | 1.16 | 0.595 | 0.612 | 0.492 | 0.7 | 1.1 | 0.514 | 0.46 | 0.585 | 0.697 | 0.426 | 1.12 |

The next lines start with the sequence.

| Sequence | SH2 binding enrichment [14] | SH2 binding enrichment [15] | SH2 binding enrichment [16] | phosphorylation enrichment [1] | phosphorylation enrichment [2] | phosphorylation enrichment [3] | phosphorylation enrichment [4] | phosphorylation enrichment [5] | phosphorylation enrichment [6] | phosphorylation enrichment [7] | phosphorylation enrichment [8] | phosphorylation enrichment [9] | phosphorylation enrichment [10] | phosphorylation enrichment [11] | phosphorylation enrichment [12] | phosphorylation enrichment [13] |
| --- | --- | --- | --- | --- | --- | --- | --- | --- | --- | --- | --- | --- | --- | --- | --- | --- |
| AHPIIYEIIEA [PYKtide_E_2014] | 1.07 | 0.872 | 1.18 | 2.02 | 5.96 | 20.4 | 9.6 | 9.98 | 2.94 | 1.93 | 8.32 | 16.2 | 22.3 | 1.59 | 11.6 | 1.16 |
| AIDVGYRLIDC [AKR1B1_Y40_H42L] | 0.7 | 2.02 | 0.993 | 0.514 | 1.2 | 0.45 | 0.428 | 0.417 | 0.861 | 0.874 | 0.512 | 0.424 | 0.456 | 0.594 | 0.39 | 0.792 |
| ALAHKCHGGGG [HBB_Y146_Y146C] | 0.761 | 0.538 | 0.829 | 0.428 | 0.755 | 0.397 | 0.414 | 0.45 | 0.758 | 0.673 | 0.563 | 0.458 | 0.473 | 0.546 | 0.469 | 0.862 |
| ALKKPYGVLFK [RPF2_Y59_YF] | 2.29 | 1.76 | 2.15 | 0.404 | 0.722 | 0.502 | 0.562 | 0.632 | 0.712 | 0.765 | 0.777 | 0.403 | 0.469 | 0.518 | 0.528 | 0.73 |
| ALMGPYHGQVL [HADHA_Y343_L342P] | 1.03 | 0.433 | 0.77 | 0.411 | 0.537 | 0.41 | 0.336 | 0.384 | 0.61 | 0.544 | 0.46 | 0.336 | 0.366 | 0.436 | 0.335 | 0.485 |
